Test results from patent publication US20090226422, “Chemical Inhibitors of Inhibitors of Differentiation” (published 2009).

Assays:
E47 (TCF3) = molecular target: T1, E47 (TCF3) (Homo sapiens, UniProt P15923-2 P15923-2:1-651); test: EMSA; 5% non-denaturing PAGE, 30 min incubation; E47 homodimer shifts the probe; conditions: tags: recombinant human E47; chain copies: 2 (homodimer, stated); label: 32P
T1 sequence: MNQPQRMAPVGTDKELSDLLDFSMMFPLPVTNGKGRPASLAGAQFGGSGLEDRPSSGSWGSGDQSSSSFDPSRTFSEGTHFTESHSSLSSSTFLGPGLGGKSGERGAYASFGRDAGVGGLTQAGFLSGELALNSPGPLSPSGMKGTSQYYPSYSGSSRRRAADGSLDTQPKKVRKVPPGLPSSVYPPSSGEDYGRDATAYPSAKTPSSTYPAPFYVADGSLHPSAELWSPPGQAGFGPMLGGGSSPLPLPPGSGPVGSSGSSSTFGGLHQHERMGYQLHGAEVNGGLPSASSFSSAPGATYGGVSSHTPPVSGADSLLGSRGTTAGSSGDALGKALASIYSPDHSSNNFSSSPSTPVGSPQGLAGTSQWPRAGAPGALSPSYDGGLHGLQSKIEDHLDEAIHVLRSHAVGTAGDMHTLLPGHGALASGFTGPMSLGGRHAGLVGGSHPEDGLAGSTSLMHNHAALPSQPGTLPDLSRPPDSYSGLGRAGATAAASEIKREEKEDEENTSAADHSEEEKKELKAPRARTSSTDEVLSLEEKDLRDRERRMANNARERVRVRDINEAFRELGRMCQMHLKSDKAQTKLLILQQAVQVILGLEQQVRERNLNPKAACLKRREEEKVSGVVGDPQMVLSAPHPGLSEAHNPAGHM
Description: (§1) Gel shift assays were performed using the 376 small molecules identified in the in silico drug screen and peptide synthesis. The identified compounds were then dissolved in 5% DMSO to a concentration of […] and reacted in binding mixtures that contained E47, Id1 and Mck. As controls, recombinant human E47 was used in a standard binding reaction that contained ³²P labeled MCK double stranded oligonucleotides containing consensus E-Box response element (MCK-5′ TTGATCCCCCCAACACCTGCTGCCTGAAGCT (SEQ ID NO. 1)) and 100 ng of Id1 was added to a standard binding reaction using E47 and p32 labeled MCK. After 30 minutes of incubation, the reaction mixtures were resolved on a 5% non-denaturing polyacrylamide gel and autoradiographed.

E47 + Id1 = molecular target: T2, E47 + Id1 (Homo sapiens, UniProt P15923-2;P41134 P15923-2:1-651,P41134:1-155); test: EMSA; Id1 (100 ng) added to E47 prevents E47 binding to MCK; binding restored by small-molecule Id inhibitors (100 uM, 5% DMSO); conditions: tags: recombinant human E47 mixed with recombinant human Id1 (100 ng); label: 32P
T2 sequence 1: T1 sequence
T2 sequence 2: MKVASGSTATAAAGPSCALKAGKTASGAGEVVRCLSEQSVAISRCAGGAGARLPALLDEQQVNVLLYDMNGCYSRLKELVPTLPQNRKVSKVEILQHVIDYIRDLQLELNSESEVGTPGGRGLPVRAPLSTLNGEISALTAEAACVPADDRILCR
Description: as §1

B1: MCK E-box oligonucleotide (dsDNA)
DNA 1: TTGATCCCCCCAACACCTGCTGCCTGAAGCT
DNA 2: AGCTTCAGGCAGCAGGTGTTGGGGGGATCAA
E47 (TCF3)
  binding result: binds
E47 + Id1
  binding result: no binding
